Experimental data reported in article PMC4344121.
Where no end group is shown, it is not given here. The star is where a group is joined. lipoyl = O=C(CCCC[C@@H]1CCSS1)*

Target: T1, N-terminally truncated human SIRT4 (33-314) (human) (UniProt Q9Y6E7)
T1 sequence: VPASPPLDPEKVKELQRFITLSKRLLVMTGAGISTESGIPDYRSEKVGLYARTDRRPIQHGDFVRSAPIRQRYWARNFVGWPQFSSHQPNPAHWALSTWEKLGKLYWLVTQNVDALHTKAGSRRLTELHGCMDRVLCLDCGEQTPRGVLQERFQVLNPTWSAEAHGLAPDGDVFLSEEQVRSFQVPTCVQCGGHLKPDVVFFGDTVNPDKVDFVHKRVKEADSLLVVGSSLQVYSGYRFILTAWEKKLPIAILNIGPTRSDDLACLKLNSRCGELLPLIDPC

## EIETDK(lipoyl)ATIGW [DLAT K259 Lipoyl peptide]
  Km of delipoylation, steady-state kinetics (HPLC-based assay, SIRT4 5 μM): 239 µM
